Experimental data as given in patent US20140087995A1 (published 2014).
One block for each binder: values may come before it. Numbered stars: 1 amine (or outer) side, 2 acyl side, 3 side chain; on linkers, the order of the positions; unused ones are H or OH. Bridge positions count the residues as written; N and C are the ends. Side chains are listed from the residue outwards. Ends that are not written are not given here. * marks the point of attachment. C20 diacid = O=C(O)CCCCCCCCCCCCCCCCCCC(=O)*; γGlu = O=C(O)[C@H](CCC(=O)[*:2])N[*:1]; AEEA = NCCOCCOCC(=O)O

Tests used:
rat calcitonin receptor [1] = target: T1, rat calcitonin receptor (rat, UniProt P32214 25-516); experiment: IC50 on rat CTR divided by IC50 on rat amylin receptor (Assays VIII/VI)
T1 construct: whole, on cells; Used as membranes prepared from BHK tk'ts 13 cells transiently transfected with the rat calcitonin receptor (Assay VIII); also called rCTR; rat calcitonin (a) receptor
T1 sequence (looked up): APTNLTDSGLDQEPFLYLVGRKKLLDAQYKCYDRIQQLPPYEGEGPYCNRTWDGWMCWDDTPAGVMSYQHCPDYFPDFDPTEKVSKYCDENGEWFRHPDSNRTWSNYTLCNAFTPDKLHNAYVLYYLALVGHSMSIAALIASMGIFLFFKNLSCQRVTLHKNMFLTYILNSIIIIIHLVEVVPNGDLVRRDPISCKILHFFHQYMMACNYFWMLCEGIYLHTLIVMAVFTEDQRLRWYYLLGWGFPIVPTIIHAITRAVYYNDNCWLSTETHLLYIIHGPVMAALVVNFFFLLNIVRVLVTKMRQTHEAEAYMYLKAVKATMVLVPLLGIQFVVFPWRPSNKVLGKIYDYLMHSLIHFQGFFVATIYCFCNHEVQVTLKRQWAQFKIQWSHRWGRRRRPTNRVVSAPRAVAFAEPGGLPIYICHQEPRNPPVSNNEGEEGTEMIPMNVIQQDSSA

[2] = target: T2, human calcitonin receptor (human, UniProt P30988 25-474); experiment: IC50 on human CTR divided by IC50 on human amylin receptor (Assays VII/V)
T2 construct: whole, on cells; Used as membranes prepared from a BHK tk'ts 13 cell line stably transfected with the human calcitonin receptor (Assay VII); also called hCTR; hCT
T2 sequence (looked up): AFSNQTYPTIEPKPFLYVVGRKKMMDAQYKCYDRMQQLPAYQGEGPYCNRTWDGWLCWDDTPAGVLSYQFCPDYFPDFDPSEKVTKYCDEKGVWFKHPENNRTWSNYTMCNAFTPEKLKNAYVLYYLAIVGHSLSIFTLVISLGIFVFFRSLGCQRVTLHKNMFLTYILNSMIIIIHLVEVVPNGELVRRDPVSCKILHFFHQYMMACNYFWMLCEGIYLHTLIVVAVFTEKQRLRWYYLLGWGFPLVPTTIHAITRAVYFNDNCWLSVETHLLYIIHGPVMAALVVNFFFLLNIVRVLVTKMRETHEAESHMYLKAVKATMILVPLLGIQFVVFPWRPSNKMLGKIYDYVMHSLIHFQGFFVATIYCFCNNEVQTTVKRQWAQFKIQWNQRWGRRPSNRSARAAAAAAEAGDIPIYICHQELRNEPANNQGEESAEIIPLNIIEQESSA
Method in brief: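 Membranes (35 ng/μL final) + SPA beads, 50 mM Hepes pH 7.4 buffer with 1 mM CaCl2, 5 mM MgCl₂, 0.1% OA, 0.02% Tween20; 120 min, 25° C, shaking; centrifuged, counted; IC₅₀ by one-site binding competition.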

rat calcitonin receptor [3] = target: T1, rat calcitonin receptor; experiment: SPA competition with 125I-calcitonin, membranes of BHK cells with rat CTR (Assay VIII)
[4] = target: T3, rat amylin receptor (rat calcitonin receptor + rat RAMP 3) (rat, UniProt P32214 25-516; Q9JJ73 23-147); experiment: SPA competition with 125I-rat amylin, membranes of BHK cells with rat CTR + rat RAMP3 (Assay VI)
T3 construct: whole, on cells; Used as membranes prepared from BHK tk'ts 13 cells transiently transfected with rat calcitonin receptor and rat RAMP 3 (Assay VI); also called rAmylin-R; rat amylin 3(a) receptor
T3 sequence (looked up) 1: T1 sequence (looked up)
T3 sequence (looked up) 2: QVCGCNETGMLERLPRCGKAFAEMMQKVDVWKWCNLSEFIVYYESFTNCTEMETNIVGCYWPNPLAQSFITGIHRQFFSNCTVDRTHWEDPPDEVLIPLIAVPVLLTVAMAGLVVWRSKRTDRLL

Ratio rCT/rAmylin binding (rat calcitonin receptor [1]): 162
Ratio hCT/hAmylin binding [2]: 32
IC50 (rat calcitonin receptor [3]): 44.8 nM
IC50 [4]: 0.276 nM
B1: N^ε1-[2-[2-[2-[[(4S)-4-carboxy-4-(19-carboxynonadecanoylamino)butanoyl]amino]ethoxy]ethoxy]acetyl]-[Gly14,Arg17,Pro21,Pro27,Pro31]-h-amylin (peptide)
peptide: K([AEEA-γGlu-C20 diacid])CNTATCATQRLAGFLRHSSPNFGAIPSSTPVGSNTY-NH2
modifications: disulfide 2-7; N-terminus assumed
SMILES: CC[C@H](C)[C@H](NC(=O)[C@H](C)NC(=O)CNC(=O)[C@H](Cc1ccccc1)NC(=O)[C@H](CC(N)=O)NC(=O)[C@@H]1CCCN1C(=O)[C@H](CO)NC(=O)[C@H](CO)NC(=O)[C@H](Cc1c[nH]cn1)NC(=O)[C@H](CCCNC(=N)N)NC(=O)[C@H](CC(C)C)NC(=O)[C@H](Cc1ccccc1)NC(=O)CNC(=O)[C@H](C)NC(=O)[C@H](CC(C)C)NC(=O)[C@H](CCCNC(=N)N)NC(=O)[C@H](CCC(N)=O)NC(=O)[C@@H](NC(=O)[C@H](C)NC(=O)[C@@H]1CSSC[C@H](NC(=O)[C@@H](N)CCCCNC(=O)COCCOCCNC(=O)CC[C@H](NC(=O)CCCCCCCCCCCCCCCCCCC(=O)O)C(=O)O)C(=O)N[C@@H](CC(N)=O)C(=O)N[C@@H]([C@@H](C)O)C(=O)N[C@@H](C)C(=O)N[C@@H]([C@@H](C)O)C(=O)N1)[C@@H](C)O)C(=O)N1CCC[C@H]1C(=O)N[C@@H](CO)C(=O)N[C@@H](CO)C(=O)N[C@H](C(=O)N1CCC[C@H]1C(=O)N[C@H](C(=O)NCC(=O)N[C@@H](CO)C(=O)N[C@@H](CC(N)=O)C(=O)N[C@H](C(=O)N[C@@H](Cc1ccc(O)cc1)C(N)=O)[C@@H](C)O)C(C)C)[C@@H](C)O
notes: Analogue of human amylin; also called compound 71

Ratio rCT/rAmylin binding (rat calcitonin receptor [1]): 36.2
Ratio hCT/hAmylin binding [2]: 68.1
IC50 (rat calcitonin receptor [3]): 60.4 nM
IC50 [4]: 1.67 nM
B2: N^ε1-[2-[2-[2-[[(4S)-4-carboxy-4-(19-carboxynonadecanoylamino)butanoyl]amino]ethoxy]ethoxy]acetyl]-[His14,Arg17,Pro21,Pro27,His34]-h-amylin (peptide)
peptide: K([AEEA-γGlu-C20 diacid])CNTATCATQRLAHFLRHSSPNFGAIPSSTNVGHNTY-NH2
modifications: disulfide 2-7; N-terminus assumed
SMILES: CC[C@H](C)[C@H](NC(=O)[C@H](C)NC(=O)CNC(=O)[C@H](Cc1ccccc1)NC(=O)[C@H](CC(N)=O)NC(=O)[C@@H]1CCCN1C(=O)[C@H](CO)NC(=O)[C@H](CO)NC(=O)[C@H](Cc1c[nH]cn1)NC(=O)[C@H](CCCNC(=N)N)NC(=O)[C@H](CC(C)C)NC(=O)[C@H](Cc1ccccc1)NC(=O)[C@H](Cc1c[nH]cn1)NC(=O)[C@H](C)NC(=O)[C@H](CC(C)C)NC(=O)[C@H](CCCNC(=N)N)NC(=O)[C@H](CCC(N)=O)NC(=O)[C@@H](NC(=O)[C@H](C)NC(=O)[C@@H]1CSSC[C@H](NC(=O)[C@@H](N)CCCCNC(=O)COCCOCCNC(=O)CC[C@H](NC(=O)CCCCCCCCCCCCCCCCCCC(=O)O)C(=O)O)C(=O)N[C@@H](CC(N)=O)C(=O)N[C@@H]([C@@H](C)O)C(=O)N[C@@H](C)C(=O)N[C@@H]([C@@H](C)O)C(=O)N1)[C@@H](C)O)C(=O)N1CCC[C@H]1C(=O)N[C@@H](CO)C(=O)N[C@@H](CO)C(=O)N[C@H](C(=O)N[C@@H](CC(N)=O)C(=O)N[C@H](C(=O)NCC(=O)N[C@@H](Cc1c[nH]cn1)C(=O)N[C@@H](CC(N)=O)C(=O)N[C@H](C(=O)N[C@@H](Cc1ccc(O)cc1)C(N)=O)[C@@H](C)O)C(C)C)[C@@H](C)O
notes: Analogue of human amylin; also called compound 80
